Measured values published in the Human Domainome abundance scans (Beltran et al. 2025).
± gives the uncertainty stated by the source.

B1: PDZ and LIM domain protein 2, residues 284 to 339; numbered along this chain, Q96JY6 (parent)
chain: HTCEKCSTSIANQAVRIQEGRYRHPGCYTCADCGLNLKMRGHFWVGDELYCEKHAR

Variants of: B1
Experiment: abundance fitness (aPCA) (normalised: wild type 0, dead -1); higher = more abundant; growth selection in yeast, the domain comes from the species named
Settings: Homo sapiens

Abundance fitness: each site, then its substitutions
C6: M -0.523 ± 0.13 | E -0.382 ± 0.17 | P -0.336 ± 0.2 | W -0.872 ± 0.12 | Y -0.743 ± 0.099
S9: T -0.271 ± 0.085 | Q -0.079 ± 0.12 | I -0.764 ± 0.34 | F -1.09 ± 0.28 | V -0.485 ± 0.08 | D 0.277 ± 0.13 | M -0.62 ± 0.11 | L -0.767 ± 0.12 | G -0.08 ± 0.065
H54: Q -0.759 ± 0.15 | Y -0.284 ± 0.15 | C 0.135 ± 0.084 | I -0.755 ± 0.093 | L -0.653 ± 0.091 | D 0.128 ± 0.065 | K -0.7 ± 0.33 | T -0.7 ± 0.18
M39: C -0.186 ± 0.17 | G 0.223 ± 0.055 | K 0.071 ± 0.1 | H -0.116 ± 0.18
K5: C -0.068 ± 0.13 | Y 0.508 ± 0.14 | F -0.467 ± 0.34 | I 0.463 ± 0.14 | R 0.261 ± 0.079 | N 0.269 ± 0.16
E52: V -0.605 ± 0.15 | L -0.156 ± 0.098 | N 0.18 ± 0.13 | I -0.468 ± 0.14 | F -0.075 ± 0.14 | Q -0.102 ± 0.22 | A -0.183 ± 0.059
Y28: P -0.752 ± 0.21 | Q -0.246 ± 0.11 | R -0.473 ± 0.06 | K -0.434 ± 0.14 | L -0.262 ± 0.098 | H -0.225 ± 0.095
Q18: A 0.043 ± 0.062 | D -0.032 ± 0.13 | P -0.47 ± 0.075 | I 0.228 ± 0.18 | V 0.008 ± 0.081 | T -0.051 ± 0.075 | L -0.077 ± 0.083
A14: C -0.139 ± 0.18 | S -0.179 ± 0.079 | H -0.247 ± 0.24 | F 0.188 ± 0.14 | W -0.182 ± 0.12 | Y -0.209 ± 0.22 | V -0.208 ± 0.092
A31: M 0.027 ± 0.087 | I -0.454 ± 0.19 | L 0.119 ± 0.079
A11: F -1.16 ± 0.49 | G 0.017 ± 0.059 | C -0.446 ± 0.13 | T -0.016 ± 0.11 | D 0.321 ± 0.069 | M -0.521 ± 0.18 | L -0.827 ± 0.12 | R -0.231 ± 0.053
D32: T 0.057 ± 0.061 | S -0.193 ± 0.072 | W -0.235 ± 0.06 | P -0.824 ± 0.17 | Y -0.106 ± 0.087 | M -0.022 ± 0.095
E48: T -0.286 ± 0.12 | A -0.091 ± 0.061 | P -0.788 ± 0.1 | G 0.079 ± 0.079 | D -0.065 ± 0.19 | M -0.18 ± 0.12 | Q -0.292 ± 0.14
S7: C 0.023 ± 0.095 | N -0.294 ± 0.18 | A 0.085 ± 0.079 | Y -0.614 ± 0.2 | E -0.878 ± 0.26 | F -0.137 ± 0.073 | M -0.083 ± 0.14 | V -0.16 ± 0.095
G46: Q -0.206 ± 0.11 | M -0.276 ± 0.14 | H -0.238 ± 0.19 | A -0.206 ± 0.092 | L -0.134 ± 0.068 | W -0.429 ± 0.17 | Y 0.044 ± 0.17 | K 0.019 ± 0.12 | P -0.324 ± 0.093 | E 0.047 ± 0.064
W44: M -0.034 ± 0.13 | N -0.24 ± 0.25
C3: R -0.847 ± 0.059 | Y -0.436 ± 0.13 | V -0.983 ± 0.18 | Q -0.82 ± 0.13 | E -0.986 ± 0.23 | I -0.471 ± 0.25 | W -1.05 ± 0.2
C33: P -0.757 ± 0.16 | W -0.765 ± 0.17 | R -0.964 ± 0.086 | T -0.747 ± 0.1 | M -0.947 ± 0.079 | S -0.828 ± 0.11
R23: Q -0.509 ± 0.27 | V -0.075 ± 0.065 | I -0.69 ± 0.21 | K -0.315 ± 0.13 | F -0.391 ± 0.23
I17: G -0.239 ± 0.083 | M -0.372 ± 0.072 | T -0.311 ± 0.079 | H -0.781 ± 0.13 | V -0.106 ± 0.099
L49: K -0.733 ± 0.14 | Q -0.174 ± 0.12 | V -0.075 ± 0.086 | S -0.341 ± 0.081
L37: F -0.262 ± 0.22 | C -0.3 ± 0.13 | R -0.565 ± 0.076 | D -0.249 ± 0.14 | K -0.502 ± 0.14 | P -0.442 ± 0.14 | E -0.407 ± 0.068 | A -0.601 ± 0.071
R56: C 0.093 ± 0.3 | G 0.068 ± 0.088
G20: S -0.29 ± 0.087 | F 0.116 ± 0.12 | R -0.136 ± 0.063 | I -0.257 ± 0.091 | T -0.129 ± 0.069 | P -0.63 ± 0.13 | M -0.154 ± 0.068
E4: W -0.276 ± 0.12 | R -0.624 ± 0.052 | Y 0.056 ± 0.22 | M 0.093 ± 0.12 | F 0.075 ± 0.1 | I -0.331 ± 0.26 | G -0.028 ± 0.096 | Q -0.16 ± 0.093 | A -0.245 ± 0.068
I10: K -0.488 ± 0.13 | G -0.312 ± 0.062 | Y -0.809 ± 0.21 | E 0.006 ± 0.099 | T -0.14 ± 0.15 | W -0.488 ± 0.14
H42: I -0.282 ± 0.24 | L 0.178 ± 0.084 | K -0.113 ± 0.064 | T 0.008 ± 0.14 | W -0.233 ± 0.064
